Key:
[1] = target: T1, SRSF1 RRM tandem (human, UniProt Q07955 1-196); assay: FP; FP, 10 nM RNA, 37 C 30 min then 25 C 10 min; 21-mers: 25 mM KCl, 0.25 M Arg/Glu, 20 mM Tris-HCl pH 7.5, 0.1 mM EDTA, 0.1 mM TCEP, 0.02% Tween 20; 8-mers: 35 mM; conditions: protein: recombinant, tags: none (SUMO cleaved), label: 5' fluorescein
[2] = target: T2, SRSF1 RS (human, UniProt Q07955 199-248); assay: as above; conditions: protein: recombinant, tags: none (SUMO cleaved), label: 5' fluorescein
T2 chain: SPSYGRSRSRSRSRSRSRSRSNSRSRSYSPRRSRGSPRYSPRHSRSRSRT

[3] = target: SRSF1 full-length (human, UniProt Q07955 1-248); assay: as above; conditions: protein: recombinant, tags: none (pSMT3 His-SUMO, Ulp1 cleaved), label: 5' fluorescein
[4] = target: T2, SRSF1 RS; assay: FP; 8-mer buffer, 35 mM K3PO4; FP, 10 nM RNA, 37 C 30 min then 25 C 10 min; 21-mers: 25 mM KCl, 0.25 M Arg/Glu, 20 mM Tris-HCl pH 7.5, 0.1 mM EDTA, 0.1 mM TCEP, 0.02% Tween 20; 8-mers: 35 mM; conditions: protein: recombinant, tags: none (SUMO cleaved), label: 5' fluorescein
[5] = target: T3, RRM1/RRM2 linker (human, UniProt Q07955 92-120); assay: FP; FP, 10 nM RNA, 37 C 30 min then 25 C 10 min; 21-mers: 25 mM KCl, 0.25 M Arg/Glu, 20 mM Tris-HCl pH 7.5, 0.1 mM EDTA, 0.1 mM TCEP, 0.02% Tween 20; 8-mers: 35 mM; conditions: protein: recombinant; label: 5' fluorescein; G-quadruplex (parallel)
T3 chain: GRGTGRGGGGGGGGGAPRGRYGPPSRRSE

[6] = target: RRM tandem Y19A (human, UniProt Q07955 1-196, Y19A); assay: as above; conditions: protein: recombinant; tags: SUMO; label: 5' fluorescein; G-quadruplex (parallel)
[7] = target: RRM tandem R173A (human, UniProt Q07955 1-196, R173A); assay: as above; conditions: protein: recombinant; tags: SUMO; label: 5' fluorescein; G-quadruplex (parallel)
[8] = target: RRM tandem Q135A (human, UniProt Q07955 1-196, Q135A); assay: as above; conditions: protein: recombinant; tags: SUMO; label: 5' fluorescein; G-quadruplex (parallel)
[9] = target: RRM tandem WT (Table 3) (human, UniProt Q07955 1-196); assay: as above; conditions: protein: recombinant; tags: SUMO; label: 5' fluorescein; G-quadruplex (parallel)
[10] = target: RRM tandem W134A (human, UniProt Q07955 1-196, W134A); assay: as above; conditions: protein: recombinant; tags: SUMO; label: 5' fluorescein; G-quadruplex (parallel)
[11] = target: RRM tandem F56A (human, UniProt Q07955 1-196, F56A); assay: as above; conditions: protein: recombinant; tags: SUMO; label: 5' fluorescein; G-quadruplex (parallel)
[12] = target: RRM tandem F58A (human, UniProt Q07955 1-196, F58A); assay: as above; conditions: protein: recombinant; tags: SUMO; label: 5' fluorescein; G-quadruplex (parallel)
[13] = target: RS mutant KS (human, UniProt Q07955 198-248, R198K;R204K;R206K;R208K;R210K;R212K;R214K;R216K;R218K;R222K;R224K;R229K;R230K;R2 …); assay: as above; conditions: protein: recombinant; tags: none (SUMO cleaved); label: 5' fluorescein; G-quadruplex (parallel)
[14] = target: RS mutant RA (human, UniProt Q07955 198-248, S199A;S201A;S205A;S207A;S209A;S211A;S213A;S215A;S217A;S219A;S221A;S223A;S225A;S2 …); assay: FP; similar affinity to RS; FP, 10 nM RNA, 37 C 30 min then 25 C 10 min; 21-mers: 25 mM KCl, 0.25 M Arg/Glu, 20 mM Tris-HCl pH 7.5, 0.1 mM EDTA, 0.1 mM TCEP, 0.02% Tween 20; 8-mers: 35 mM; conditions: protein: recombinant; tags: none (SUMO cleaved); label: 5' fluorescein; G-quadruplex (parallel)
[15] = target: T2, SRSF1 RS; assay: STD NMR; 0.5 mM RNA, 10 uM RS, D2O; no signal above noise; FP, 10 nM RNA, 37 C 30 min then 25 C 10 min; 21-mers: 25 mM KCl, 0.25 M Arg/Glu, 20 mM Tris-HCl pH 7.5, 0.1 mM EDTA, 0.1 mM TCEP, 0.02% Tween 20; 8-mers: 35 mM; conditions: protein: recombinant; tags: none (SUMO cleaved)
[16] = target: T1, SRSF1 RRM tandem; assay: FP; FP, 10 nM RNA, 37 C 30 min then 25 C 10 min; 21-mers: 25 mM KCl, 0.25 M Arg/Glu, 20 mM Tris-HCl pH 7.5, 0.1 mM EDTA, 0.1 mM TCEP, 0.02% Tween 20; 8-mers: 35 mM; conditions: protein: recombinant; tags: none (SUMO cleaved); label: 5' fluorescein
[17] = target: T2, SRSF1 RS; assay: STD NMR; 0.5 mM RNA, 10 uM RS, D2O; strongest signal; FP, 10 nM RNA, 37 C 30 min then 25 C 10 min; 21-mers: 25 mM KCl, 0.25 M Arg/Glu, 20 mM Tris-HCl pH 7.5, 0.1 mM EDTA, 0.1 mM TCEP, 0.02% Tween 20; 8-mers: 35 mM; conditions: protein: recombinant; tags: none (SUMO cleaved)

T1 sequence (Q07955 1-196): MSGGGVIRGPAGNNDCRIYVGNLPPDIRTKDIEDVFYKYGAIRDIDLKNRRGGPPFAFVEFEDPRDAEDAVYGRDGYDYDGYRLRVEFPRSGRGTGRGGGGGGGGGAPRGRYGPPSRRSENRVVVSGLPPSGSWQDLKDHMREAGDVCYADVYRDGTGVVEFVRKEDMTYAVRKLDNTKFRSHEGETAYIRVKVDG
Chain of RRM tandem Y19A (Q07955 1-196 Y19A): as the sequence (Q07955 1-196) above, with Y19A counted along it
Chain of RRM tandem R173A (Q07955 1-196 R173A): as the sequence (Q07955 1-196) above, with R173A counted along it
Chain of RRM tandem WT (Table 3) (Q07955 1-196): as the sequence (Q07955 1-196) above
Chain of RRM tandem W134A (Q07955 1-196 W134A): as the sequence (Q07955 1-196) above, with W134A counted along it
Chain of RRM tandem F56A (Q07955 1-196 F56A): as the sequence (Q07955 1-196) above, with F56A counted along it
Chain of RRM tandem F58A (Q07955 1-196 F58A): as the sequence (Q07955 1-196) above, with F58A counted along it
Chain of RRM tandem Q135A (Q07955 1-196 Q135A): as the sequence (Q07955 1-196) above, with Q135A counted along it

## UUGGGAGGGAGGGAGAGGGUU (structured_RNA) [MMP16 GQ]
[1]; G-quadruplex
  Kd: 3500 ± 490 nM
[2]; G-quadruplex
  Kd: 150 ± 10 nM
[3]; G-quadruplex
  Kd: 5.9 ± 0.6 nM

## GGGGGGGG (structured_RNA) [8G]
[4]; intermolecular G-quadruplex
  Kd: 3 ± 0.8 nM

## GAGAGAGA (ssRNA) [4GA]
[4]
  Kd: 83 ± 3 nM

## UUUUUUUU (ssRNA) [8U]
[4]
  Kd: 550 ± 21 nM

## CUCUCUCU (ssRNA) [4CU]
[4]
  Kd: 470 ± 12 nM

## CUCUCUCUCUCUCUCUCUCUC (ssRNA) [21-mer CU]
[2]
  Kd: 1400 ± 100 nM

## GGGGGCUGGGCGGGGACCGGG (structured_RNA) [ARPC2 GQ]
[5]
  binding result: no binding
[6]
  Kd: 1800 ± 160 nM
[7]
  Kd: 140 ± 12 nM
[8]
  Kd: 350 ± 20 nM
[1]; G-quadruplex (parallel)
  Kd: 220 ± 19 nM
[2]; G-quadruplex (parallel)
  Kd: 250 ± 22 nM
[9]
  Kd: 130 ± 11 nM
[10]
  Kd: 1200 ± 90 nM
[11]
  Kd: 7000 ± 1500 nM
[12]
  Kd: 1500 ± 80 nM
[13]
  binding result: no binding
[3]; G-quadruplex (parallel)
  Kd: 3.6 ± 0.7 nM
[14]
  binding result: binds

## AAAAAAAA (ssRNA) [8A]
[4]
  Kd: 610 ± 15 nM

## UGGGUUAGGGUUAGGGUUAGGG (structured_RNA) [TERRA GQ]
[1]; G-quadruplex
  Kd: 3200 ± 290 nM
[2]; G-quadruplex
  Kd: 26 ± 2 nM
[3]; G-quadruplex
  Kd: 4.6 ± 0.5 nM

## UUU (ssRNA) [UUU 3-mer]
[15]
  binding result: no binding

## UCAGAGGG (ssRNA) [GGG motif RNA]
[16]
  binding signal: ~3 fold weaker than GGA motif

## AAA (ssRNA) [AAA 3-mer]
[15]
  binding result: no binding

## GAGAGAGAGAGAGAGAGAGAG (ssRNA) [21-mer GA]
[2]
  Kd: 210 ± 16 nM

## GGG (ssRNA) [GGG 3-mer]
[17]
  binding result: binds

From paper PMC11077049, “Unearthing a novel function of SRSF1 in binding and unfolding of RNA G-quadruplexes”
